Measurements reported in article doi:10.1101/639948 (bioRxiv, 2019).

B1: Mic19/CHCHD3 (natural protein)
chain: MGGTASTRRVTFEADENENITVVKGIRLSENVIDRMKESSPSGSKSQRYSSVYGASVSDEDLKRRVAEELALEQAKKESEHQRRLKQARDLERERAAANEQLTRAVLRERISSEEERMKAKHLARQLEEKDRVMRKQDAFYKEQLARLEERSSEFYKVTTEEYQKAAEEVEAKFKRYEYHPVCADLQTKILQCYRQNTQQTLSCSALASQYMHCVNHAKQSMLEKGG
B2: Sam50 (natural protein)
chain: MGTVHARSLEPLPSSGTDFGALGEEAEFVEVEPEAKQEILENKDVVVQHVHFDGLGRTKDDIIICEIGEVFKAKNLIEVMRRSHEAREKLLRLGIFRQVDVLIDTCHGEDALPNGLDVTFEVTELRRLTGSYNTMVGNNEGSMVLGLKLPNLLGRAEKVTFQFSYGTKETSYGLSFFKPQPGNFERNFSVNLYKVTGQFPWSSLRETDRGVSAEYSFPLWKTSHTVKWEGVWRELGCLSRTASFAVRKESGHSLKSSLSHAMVIDSRNSSILPRRGALFKVNQELAGYTGGDVSFIKEDFELQLNKPLALDSVFSTSLWGGMLVPIGDKPSSIADRFYLGGPTSVRGFSMHSIGPQSEGDYLGGEAYWAGGLHLYTPLPFRPGQGGFGELFRTHFFLNAGNLCNLNYGEGPKAHIRKLAECIRWSYGAGVVLRLGNIARLELNYCIPMGVQGGDRICDGVQFGAGIRFL

Target: native Miro2 (UniProt Q8JZN7 1-620)
Sequence (Q8JZN7 whole entry): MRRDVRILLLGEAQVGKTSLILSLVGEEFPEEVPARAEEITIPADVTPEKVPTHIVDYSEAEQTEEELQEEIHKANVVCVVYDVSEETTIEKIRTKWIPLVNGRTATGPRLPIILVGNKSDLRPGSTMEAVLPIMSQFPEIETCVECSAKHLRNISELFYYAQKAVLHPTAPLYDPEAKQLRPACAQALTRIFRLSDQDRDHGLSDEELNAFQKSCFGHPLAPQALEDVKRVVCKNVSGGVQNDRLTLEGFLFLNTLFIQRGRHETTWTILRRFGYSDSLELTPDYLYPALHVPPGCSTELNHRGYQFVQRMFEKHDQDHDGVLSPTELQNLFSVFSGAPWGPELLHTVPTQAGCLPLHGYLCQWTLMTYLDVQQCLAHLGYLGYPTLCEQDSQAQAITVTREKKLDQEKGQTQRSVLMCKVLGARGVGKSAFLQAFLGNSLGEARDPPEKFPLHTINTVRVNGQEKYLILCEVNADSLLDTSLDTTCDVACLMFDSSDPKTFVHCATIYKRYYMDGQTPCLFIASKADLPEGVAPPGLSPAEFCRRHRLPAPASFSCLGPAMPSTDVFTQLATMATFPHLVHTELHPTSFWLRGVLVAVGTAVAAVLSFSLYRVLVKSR
Experiment: proximity ligation

Row | Binder | fold enrichment of PLA signal over single antibodies
1 | B1 | 4 fold
2 | B2 | 4 fold
